The text below walks through data of patent US10946092 (BEIJING MABWORKS BIOTECH, dated 2021).

Positions count from the first letter of the chain named. Numbers in names are those of the source. Where two headings read alike, the source gives them in different places.

The target of assay [1] is T1, human LAG3 expressed on HEK293A cells (human, UniProt P18627 23-525).
T1 construct: whole, on cells; also called HEK293A/human LAG3
T1 sequence (looked up): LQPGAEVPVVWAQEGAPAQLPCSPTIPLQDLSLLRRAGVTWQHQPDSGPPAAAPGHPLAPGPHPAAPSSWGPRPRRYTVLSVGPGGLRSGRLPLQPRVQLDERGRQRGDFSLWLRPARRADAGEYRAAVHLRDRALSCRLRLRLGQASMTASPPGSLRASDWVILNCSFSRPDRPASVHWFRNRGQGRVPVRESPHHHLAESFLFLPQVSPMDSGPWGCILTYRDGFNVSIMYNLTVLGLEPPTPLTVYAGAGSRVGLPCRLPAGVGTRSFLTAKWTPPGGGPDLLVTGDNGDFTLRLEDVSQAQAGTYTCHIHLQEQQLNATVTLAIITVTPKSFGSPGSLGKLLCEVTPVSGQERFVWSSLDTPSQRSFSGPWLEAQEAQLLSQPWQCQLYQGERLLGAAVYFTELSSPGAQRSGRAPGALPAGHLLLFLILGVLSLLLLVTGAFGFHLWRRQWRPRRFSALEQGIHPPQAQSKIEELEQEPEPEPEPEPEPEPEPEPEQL
The assay is described as follows: FACS on HEK293A cells expressing human LAG3.

Assay [2] addresses T2, hLAG-3-hIg fusion protein (human LAG-3 extracellular domain fused to human Fc); Sino Biological, Cat #: … (human, UniProt P18627 23-450).
T2 construct: extracellular domain; Bought protein; also called LAG3 fusion protein; human LAG3(ECD)-hFc; not shown: human Fc
T2 sequence (looked up): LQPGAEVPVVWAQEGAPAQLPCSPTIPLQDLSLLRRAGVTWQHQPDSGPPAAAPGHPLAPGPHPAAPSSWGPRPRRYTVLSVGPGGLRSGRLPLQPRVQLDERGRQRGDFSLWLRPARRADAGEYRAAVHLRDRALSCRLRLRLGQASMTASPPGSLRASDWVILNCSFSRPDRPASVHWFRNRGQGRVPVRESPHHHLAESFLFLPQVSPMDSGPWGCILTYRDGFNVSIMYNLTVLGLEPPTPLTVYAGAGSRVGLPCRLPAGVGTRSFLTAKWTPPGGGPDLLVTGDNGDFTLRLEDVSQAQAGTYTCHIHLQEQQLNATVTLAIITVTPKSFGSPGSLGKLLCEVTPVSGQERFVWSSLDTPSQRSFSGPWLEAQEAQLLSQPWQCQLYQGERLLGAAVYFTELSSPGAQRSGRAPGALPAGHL
The assay can be described thus: FACS blocking assay: hLAG-3-hIg preincubated with the antibody, then binding to MHC II on Daudi cells.

The target of assay [3] is T3, recombinant human LAG3(ECD)-his (Sino Biological, Cat #: 16498-H08H) (human, UniProt P18627 23-450).
T3 construct: extracellular domain; Bought protein; not shown: his tag
T3 sequence (looked up): T2 sequence (looked up)
The assay is described as follows: SPR (BIAcore 8K), human LAG3(ECD)-his coupled to chip, antibody injected, 1:1 Langmuir. How it is done: (§1) Serially diluted antibodies at concentrations ranging from 0.3 μM to 10 μM were injected into the SPR running buffer (HBS-EP buffer, pH7.4, GE Life Sciences; US; Cat #: BR-1006-69) at 30 μL/minute. The binding capacities were calculated with the RUs of blank controls subtracted. The association rate (Ka) and dissociation rate (Kd) were calculated using the one-to-one Langmuir binding model (BIA Evaluation Software, GE Life Sciences). The equilibrium dissociation constant K_D was calculated as the kd/ka ratio.
For orientation: Surface plasmon resonance follows binding to a sensor surface in real time, without labels.

In assay [4] the target is T4, monkey LAG3(ECD)-mFc protein (ACRO, Cat #: LA3-052A0) (monkey).
T4 construct: extracellular domain; Bought protein
The assay can be described thus: SPR (BIAcore 8K), monkey LAG3(ECD)-mFc coupled to chip, antibody injected, 1:1 Langmuir. As for the experimental part:
as §1

Another assay concerns the target T5, Human PBMC.
T5 chain: T1 sequence (looked up)
The assay can be described thus: FACS on activated human PBMC. How it is done:
(§2) Briefly, 10^5 HEK293A cells in 50 μl PBS buffers were seeded into each well of the 96-well plates and then added with 50 μl of serially diluted anti-LAG3 antibodies (5-fold dilution, starting from 40 μg/ml). After incubated at 4° C. for 1 hour, plates were washed 3 times with PBST. Then, an APC coupled Goat Anti-Mouse IgG (BioLegend, US, Cat #: 405308) diluted 500× was added to the plates. After incubation at 4° C. for 1 hour, the plates were washed with PBS for 3 times and then cell fluorescence was monitored using a FACS machine (BD).
(§3) Further, the binding activities of the two antibodies to actived human PBMCs were investigated by FACS. Briefly, human PBMCs were collected by density gradient centrifugation and then re-suspended in the complete medium (RPMI medium+10% FBS+ human IL-2 (20 IU/ml, R&D, Cat #: 202-IL)+ Dynabeads™ Human T-Activator CD3/CD28 (Gibco, Cat #: 11132D)) at 37° C. under 5% CO_2 in a humidified incubator for 2 days to get activated T cells. The cells were then collected and tested by FACS as described in Example 6.

In assay [5] the target is T3, recombinant human LAG3(ECD)-his (Sino …). The assay is described as follows: SPR (BIAcore 8K), human LAG3(ECD)-his coupled to chip, antibody injected, 1:1 Langmuir; printed a second time as 'Ka values', read as Kd. How it is done: as §1
The target of assay [6] is T1, human LAG3 expressed on HEK293A cells. The assay can be described thus: FACS on HEK293A cells expressing human LAG3. The source holds these as a separate data set.
Assay [7] addresses T2, hLAG-3-hIg fusion protein (human LAG-3 …). The assay can be described thus: FACS blocking assay: hLAG-3-hIg preincubated with the antibody, then binding to MHC II on Daudi cells. This is another data set of the same source.
Assay [8] deals with T3, recombinant human LAG3(ECD)-his (Sino …). The assay can be described thus: ELISA on coated human LAG3(ECD)-his. As for the experimental part:
The wells were blocked with 200 µl of blocking buffer (PBS containing 1% BSA, 1% goat serum, and 0.05% Tween 20) for 2 hours at room temperature, and then 100 µl of serially diluted anti-LAG3 antibodies (starting from 40 µg/ml) were added to each well and incubated for 1 hour at RT. Plates were washed for 3 times with PBST (PBS+0.05% Tween 20), added with Goat-anti-mouse IgG-HRP (Sigma, US, Cat #: A9309-1 ml) diluted 5000×, and incubated for 1 hour at RT. Plates were developed with freshly prepared Ultra-TMB (BD, US, Cat #:555214) for 5 minutes at RT. Absorbance was read on a SpectraMaxR i3X (Molecular Devies, US) at 450 nm.
as §3
On the technique in general: In an ELISA, binding on a coated surface is turned into a signal by an enzyme label.

In assay [9] the target is T6, monkey (rhesus) LAG3 expressed on HEK293A cells (monkey (rhesus), UniProt A0A5F8A874 23-533).
T6 construct: whole, on cells; also called HEK293A/rh LAG3
T6 sequence: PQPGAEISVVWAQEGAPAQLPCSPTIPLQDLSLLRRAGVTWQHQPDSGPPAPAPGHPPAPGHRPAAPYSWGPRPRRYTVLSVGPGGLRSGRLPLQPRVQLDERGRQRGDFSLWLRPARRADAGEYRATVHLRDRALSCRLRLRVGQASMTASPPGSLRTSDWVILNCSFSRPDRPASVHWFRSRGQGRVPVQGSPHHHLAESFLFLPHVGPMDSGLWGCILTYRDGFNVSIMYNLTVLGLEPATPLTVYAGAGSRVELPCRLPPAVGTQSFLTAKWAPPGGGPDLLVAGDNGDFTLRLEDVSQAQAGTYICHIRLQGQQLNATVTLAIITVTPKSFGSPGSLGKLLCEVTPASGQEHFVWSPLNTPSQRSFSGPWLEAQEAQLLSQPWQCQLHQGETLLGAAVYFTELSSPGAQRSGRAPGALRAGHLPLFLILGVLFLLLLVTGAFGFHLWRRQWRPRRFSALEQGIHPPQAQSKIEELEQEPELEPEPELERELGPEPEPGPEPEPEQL
The assay can be described thus: FACS on HEK293A cells expressing rhesus LAG3. As for the experimental part: as §2, §3

B1: humanized antibody 134G10H2L2 (antibody, human IgG4 S228P, kappa, V domains shown)
VH: EVQLVESGGGLVKPGGSLRLSCAASGFTFSSFGMSWVRQAPGKRLEWVSIISSGGTYTFYPDILKGRFTISRDNAKNSLYLQMNSLRAEDTAVYYCARVYSDYDGRFDYWGQGTLVTVSS
VL: DIVMTQSPSSLAVSLGERATINCKSSQSLLNSGNQKNYLAWYQQKPGQPPKLLIYGASTRESGVPDRFSGSGSGTDFTLTISSLQAEDVAVYYCQNDHSYPLTFGAGTKLEIKR
notes: Human IgG4 (S228P)/kappa
As for B1, the binding result in assay [1] and in assay [2] was “binds” throughout.

B2: humanized antibody 134G10H3L3 (antibody, human IgG4 S228P, kappa, V domains shown)
VH: B1 VH with S49G
VL: B1 VL with S69T
notes: Human IgG4 (S228P)/kappa
Regarding B2, the binding result in [1] and in [2] was “binds” each time.

B3: humanized antibody 134G10H3L2 (antibody, human IgG4 S228P, kappa, V domains shown)
VH: B1 VH with S49G
VL: B1 VL
notes: Human IgG4 (S228P)/kappa; also called 134G10H3VL2
For the molecule B3, the binding result in [1] and in [2] was “binds” in each case.

B4: humanized antibody 134G10H2L3 (antibody, human IgG4 S228P, kappa, V domains shown)
VH: B1 VH
VL: B1 VL with S69T
notes: Human IgG4 (S228P)/kappa
Consider B4, for which, in [3], the Kd stood at 0.262 nM and the kon was 166000 M⁻¹ s⁻¹. Also, in [4], the affinity, expressed as Kd, was 0.000201 nM.

B5: humanized antibody 134G10H0L0 (antibody, human IgG4 S228P, kappa, V domains shown)
VH: B1 VH with R44G
VL: B1 VL with S9D, A106Q
notes: Human IgG4 (S228P)/kappa
B5: the binding result in assay [1] and in assay [2] was “binds” throughout.

B6: humanized antibody 101F4H2L2 (antibody, human IgG4 S228P, kappa, V domains shown)
VH: QVQLVQSGAEVKKPGASVKVSCKVSGYTFTDYEMHWVRQAPGKGLEWMGAIDPETGGIVYNQRFKGRVTLTADTSTDTAYMELSSLRSEDTAVYYCATAGWGYWGQGTTVTVSS
VL: DIQMTQSPSSLSASVGDRVTITCKASQDINSYLSWYQQKPGKAPKLLIYRANRLLDGVPSRFSGSGSGQDYTLTISSLQPEDFATYYCLQYDEFPFTFGQGTKLEIKR
notes: Human IgG4 (S228P)/kappa
Consider B6, for which the “EC50 (read off the curve)” value in the assay with Human PBMC is approximately 0.1 µg/mL. Further, in [3], the Kd was 414 nM and the kon was 960000 M⁻¹ s⁻¹. Besides, binding in [4] was characterised by a dissociation constant (Kd) of 0.488 nM. In [5], the koff stood at 0.398 s⁻¹.

B7: humanized antibody 101F4H3L2 (antibody, human IgG4 S228P, kappa, V domains shown)
VH: B6 VH with V24A, V68A, T98G
VL: B6 VL
notes: Human IgG4 (S228P)/kappa
As for B7, the binding result in assay [6] and in assay [7] was “binds” each time.

B8: humanized (with affinity maturation) antibody 101F4H2L2-8 (antibody, human IgG4 S228P, kappa, V domains shown)
VH: B6 VH with A99T, G102N, Y103D
VL: B6 VL with L89Q
For B8, the “EC50 (read off the curve)” value was approximately 0.02 µg/mL in the assay with Human PBMC, approximately 1 µg/mL in [8] and approximately 0.8 µg/mL in assay [9]. The Kd in assay [3] worked out at 2.05 nM; in assay [4], 0.98 nM. Also, the kon in assay [3] came out at 104000 M⁻¹ s⁻¹. The koff in assay [5] amounted to 0.000214 s⁻¹.

B9: humanized antibody 101F4H0L0 (antibody, human IgG4 S228P, kappa, V domains shown)
VH: B6 VH with L70M, A72E
VL: B6 VL with Q69T, Y71F
notes: Human IgG4 (S228P)/kappa
Turning to B9, the binding result in assay [6] and in assay [7] was “binds” each time.

B10: humanized antibody 101F4H2L3 (antibody, human IgG4 S228P, kappa, V domains shown)
VH: B6 VH
VL: B6 VL with M4I, Y36F
notes: Human IgG4 (S228P)/kappa
Turning to B10, the binding result in [6] and in assay [7] was “binds” in each case.

B11: humanized antibody 101F4H3L3 (antibody, human IgG4 S228P, kappa, V domains shown)
VH: B6 VH with V24A, V68A, T98G
VL: B6 VL with M4I, Y36F
notes: Human IgG4 (S228P)/kappa
Take B11: the binding result in [6] and in [7] was “binds” in each case.

A word on the Kd: it is the equilibrium constant for the complex coming apart. The kon is a measure of how fast the partners come together. For orientation: EC50 (read off the curve) means the concentration needed to bring the measured effect to its halfway point. As usually defined, the koff is the rate constant with which the complex falls apart.
